Experimental data from article PMC10881042.

Experiments:
[1] = molecular target: PKA type I regulatory subunit RIα, in H295R adrenal cells (human (endogenous in H295R)) (UniProt P10644)
[2] = molecular target: PKA type II regulatory subunit RIIα, in H295R adrenal cells (UniProt P13861)
UniProt P13861, sequence (P13861 whole entry, stated change not applied): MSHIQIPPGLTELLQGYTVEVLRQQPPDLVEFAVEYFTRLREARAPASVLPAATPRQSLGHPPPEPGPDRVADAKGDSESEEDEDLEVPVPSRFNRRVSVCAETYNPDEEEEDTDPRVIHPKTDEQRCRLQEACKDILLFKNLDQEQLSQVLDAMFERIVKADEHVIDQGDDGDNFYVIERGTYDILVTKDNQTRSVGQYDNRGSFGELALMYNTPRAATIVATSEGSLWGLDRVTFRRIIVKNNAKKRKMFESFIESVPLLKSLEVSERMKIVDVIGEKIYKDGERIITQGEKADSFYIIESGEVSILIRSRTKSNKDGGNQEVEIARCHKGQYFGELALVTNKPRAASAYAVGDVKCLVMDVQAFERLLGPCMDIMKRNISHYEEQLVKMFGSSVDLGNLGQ

UniProt P10644, sequence (P10644 whole entry, stated change not applied): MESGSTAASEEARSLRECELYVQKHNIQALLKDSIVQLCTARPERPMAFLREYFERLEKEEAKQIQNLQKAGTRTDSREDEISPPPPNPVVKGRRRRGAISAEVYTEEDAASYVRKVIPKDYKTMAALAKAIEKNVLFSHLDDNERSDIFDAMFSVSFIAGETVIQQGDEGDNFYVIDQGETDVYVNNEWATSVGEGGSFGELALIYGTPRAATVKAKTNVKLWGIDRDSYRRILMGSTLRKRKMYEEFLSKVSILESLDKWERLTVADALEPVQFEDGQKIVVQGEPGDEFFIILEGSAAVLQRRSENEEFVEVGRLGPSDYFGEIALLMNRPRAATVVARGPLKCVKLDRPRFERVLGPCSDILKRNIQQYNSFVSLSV

residence of photoactivatable-mCherry PKAc at the site of photoactivation after 12.5 s in H295R cells with smAKAP-GFP and RIα-iRFP [1]: 40% | residence of photoactivatable-mCherry PKAc at the site of photoactivation after 12.5 s in H295R cells with AKAP79-YFP and RIIα-iRFP [2]: 30%
Substance: V5-tagged PKAc-W196R, in H295R adrenal cells (enzyme)
